Reference: PMC2764455

How the values were obtained:
bPrP peptide 16 = target: T1, bPrP peptide 16 (bovine, UniProt P10279 108-119); test: microchip electrophoresis
T1 chain: GQWNKPSKPKTN

bPrP peptide 1 = target: T2, bPrP peptide 1 (bovine, UniProt P10279 25-36); test: microchip electrophoresis
T2 chain: KKRPKPGGGWNT

Binder: GGAGGAGGAGGA (structured_RNA) [R12]
- binding result (bPrP peptide 16): binds
- binding result (bPrP peptide 1): binds
